Test results: the nanobody polyreactivity screen of Harvey et al. (2022)

Test: yeast display, Sf9 membrane polyspecificity reagent, FACS + sequencing; frameworks hold sequencing errors
Procedure, shortened: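 Galactose induction of a Saccharomyces cerevisiae BJ5465 synthetic nanobody display library ran 36–48 hours. The cells were then stained for 1 hour at 4 °C with 10% biotinylated, detergent-solubilized Sf9 membrane reagent, pulled down on streptavidin microbeads and FACS-sorted into low and high (top ~1%) gates on expression and reagent-binding fluorescence. Labels for polyreactivity follow the gate of origin.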

Row | Sequence | polyreactivity (PSR sort gate)
1 | QDQLEESGGGLVQAGGSLRLSCGASGSIYDTNDMGWYRQAPGKERELVSAISSGGNTNYADSVKGRFTISRDNAKNTVYLQMKSVKPEDTAVYYWAAVWLGVYSVWTYHHYDYWGQGTQVTVSS | low polyreactivity
2 | QDQLEESGGGLVQEGGSLRLSCAATGFTLAFNAMGWYRQAPGKERELVASITSSSGSTYYADSVKGRFTISRDNAKITVFLQMNSLKPEDTAVYYCARDLAIPQVLSQPIFGYWGQGTQVTVSS | low polyreactivity
3 | QDQLGESGGGLLQAGGSLRLSCAASGRTFRYYAMGSYRQEPGKERELVAAISISGGNTYYADSVKGRFTISRDHAKNTVYLQMNSLKPEDTAVYYCAASFSSRFYRARVDYWGQGTQVTVSS | high polyreactivity
4 | QDQLGESGGGLVQAGGSLRLICAASGRIFPYYAMAWYRQAAGKEREFVASITKRRGSTSYADSVKGRFTISRDNAKNTVYLQMHSLKPEDTAVYYCAARRGSGMVTYYGGDYWGQGTQVTVSS | low polyreactivity
5 | QDQLGESGGGLVQAGGSLRLSCPASGFTVSNNVMGWSRQAPGKERELVADITWSGDGTYYADSVKGRFTISRDNAKKSVYLQMNSLKTEDTAVYYCNARYGKEYDYWGQGTQVTVSS | low polyreactivity
6 | QDQLLESGGGLVQAGGSLLLSCAASGSTFFDYAMGWYRQAPGKERELVAVISDGGTTTYADSVKGRFTISRDNAKNTVYLQMNSLKPEDTAVYYCAAENQDGLLVILGGYGYWGQGTQVTVSS | low polyreactivity
7 | QDQLLETGGGLVQAGGSLRLSCAASGSTSLVYAMGWYRQAPGKERELVADISWSGGSTYYTDSVKGRFTISRDNAKNTVYLQMNSLKPEDTAVYYCNGGTYSTSVPYPYKYWGQGTQVTVSS | high polyreactivity
8 | QDQLVDSGGGIVQAGGILSLSCAASGRNIIYNAMGWYRQAPGKERELVAAINRSGVSTHYADSVKGRFTISRDNAKNTVYLQMTSLKPEDTAVYYCASTVYGARSYDYWGQGTQVTLSS | low polyreactivity
9 | QDQLVDSGGGLLQAGGSLRLSCAASGSTFHPYAMGWYRQAPGKERELVAAITFSGGSTYADSVKGRFTISRDNAKNTVYIQMNSLKPEDTAVYYCAAEWWYWRGWRDYWGQGTQVTVSS | low polyreactivity
10 | QDQLVDSGGGLLQAGGSLRLSCAASGSTLSKYAMGWNRQAPGKERELVAAISQRGGSTYYADSVKGRFTISRDNAKYTVYLQMNSLKPEDTAVSYCNALQRRYGYWGQGTQVTESS | high polyreactivity
11 | QDQLVDSGGGLVKAGGNLRLSCPASGSTFDYNTMGWNIQEPGKESEMVAVITASGGSTYYADSVKGRFTISRDNAKNTVYLQMNSLKPEDTAVYYCAKDLYVSYYIGTCYYYWGQGTQVTVSS | low polyreactivity
12 | QDQLVDSGGGLVQAGGSLRLSCAASGFNFGYYAMGWYRQAPRKERELVAAISRSGGRTYYADSVKGRFTISRDNAKNTVYLQMNILNPEDTAVYYCNARHYLSAYDYWGQGTQVTVSS | high polyreactivity
13 | QDQLVDSGGGLVQAGGSLRLSCAASGRTFTVYAMGWYRQAPGKERELVAAISGSSGSTDYADSVKGRFTISRDNAKNTVYLQMNSLKPEDTAVYYCAKASSATRYVQLRQDYDYWGQGTQVTVSS | low polyreactivity
14 | QDQLVESAGGLLQAGGSLRLSCAASGSTFKYNAMGWYRQAPGKERELVDSITRGGNTNYADSVKGRFTISRDNAKNTVYLLMNSLKTEDTAFYYCAAQLMRDLRSPYSYNYWGQGTQVTVSS | low polyreactivity
15 | QDQLVESAGGLVQAGGSLRLICAASGSTFALYAMGWYRQAAGTERELVAAISRSGGRTYYADSVKGRFTISRDNPKNTVYLQMNSLKPDDTAVYYCAADFSRPGGLDESWGQGTQVTVSS | high polyreactivity
16 | QDQLVESAGGLVQAGGSLRLSCAASGRIFVFNAMGWYIQAPGKERELVAGINRGASTYYADSVKGRFTISRDNAKNTVYFQMNSLKPEDTAVYYCAADNFWWTKLYYWGQGTQVTVSS | high polyreactivity
17 | QDQLVESAGGLVQAGGSLRLSCAASVITFVRYVMGWYRQAPGKEREFVARIRWRGGSTNYADSVKGRFTISRDNAKNTVYLQMNSLKPEDTAVYYCNAVRRASSGYDYWGQGTQVTVSS | high polyreactivity
18 | QDQLVESCGGLVQAGGSHRLTCAASGGTSWIYAMGWYRQAPRKARELVAVITWSGGSTYYADSVKGRFTISRDTAKNTVYLQMNSLKPEDTAVYYCATDYTGKWKDHYYYWGQGTQVTVSS | low polyreactivity
19 | QDQLVESCGGLVQAGGSLRLSCAASGRTFYRYAMGWYIQAPGKERELVADITRRVGITHYADSVKGRFTISRDYAKNTVYLKMNSLKPEDTAVYYCAARKYGSRYRLKYDYWGQGTQVTVSS | high polyreactivity
20 | QDQLVESGAGLVQAGGSLRLSCAASGFNFYRYAMGWYREAPGKERELVATISVRGGTYYADSVKGRFTISRDNAKNTVYLQMNSLKPEDTAVYYCAARVHLWGDTLKFVRVGYWGQGTQVTVSS | low polyreactivity
21 | QDQLVESGGCLVQAGGSLRLSCAASGRIIIGYVMGWYRQAPVKERELVATISYSGGSTYADSVKGRFTISRDNAKNTVYLLMNSLKPEDTAVYYCNALFAGHKYYTVTSKYDYWGQGTQVTLSS | high polyreactivity
22 | QDQLVESGGGFVQAGGSLRLSCAASGITFPLYALGRYRQPPGKERELVAAISRNGGRTYYADSVKVRFTMSRDNAKNTVYLQMNSMKPEDTAVYYCAKVSRGSVSSPPDDYWGQGTQVTVSS | high polyreactivity

Row | Sequence | polyreactivity (PSR sort gate)
23 | QDQLVESGGGFVQAGGSLRLSCAASGLTFWYYAMGWYRQATGKEVELVAANDWSGASTYYADSVKGRFTISRDNAKNTVYLQMISLQPEDTAVYYCNTVYYIGDDYWGQGTQVTVSS | high polyreactivity
24 | QDQLVESGGGFVQARGSLRLSCAACGFIFYANAMGWYRQAPGKERELVAGISWSGTSTYYADSVKGRFTISRDNAKNTVYLQMNSLKPEDTAVYYCNRVFYHFDVDRYDYWGQGTQVTVSS | low polyreactivity
25 | QDQLVESGGGIVQAGGILRLSCASSGFIFRGYAMGWYRQAPGKEWELVAAINSGDSTNYADSVKGRFTISRDNAKNTVSLQMNSLKREDTAVYYCAASIYAALNGGEGYDYWGQGTQVTVSS | low polyreactivity
26 | QDQLVESGGGIVQAGGRLRLSCAASGSIFRYYAMGWYRQAPGKERDLVAAINWDGGSTYYADSVKGRFTISRDNAKNTVYLQMNSLKPEDTAVYYCATTSRVYAYGYRTSNYWGQGTQVTVSS | high polyreactivity
27 | QDQLVESGGGIVQAGGSLRLSCAASGRNFILNAMGLYRQAPGKERELVAAITWSGGGTYYADSVKGRFTISRDNAKNTVYLQMNSLKASDSAVYYCNRPAAVGEEDYWGQGTQVTVSS | low polyreactivity
28 | QDQLVESGGGIVQAGGSLRLSCAASGSTFPIYAMGWYRQAPGKERELVADITSTGSTDYADSVKGRFTISRDNAKNTVYLQMNSLKPEDTAVYYCAADYYYSAYFWSDFDYWGQGTQVTVSS | high polyreactivity
29 | QDQLVESGGGIVQAGGTLRLSCAASGRTIGGYDMGWDRQAPGKERQLVAAIRTGGRTNYADSVKGRFTISRDNAKNTVYLQLNSLKPEDTAVYYCNARRRIADPRAGIYDYCGQGTQVTVSS | high polyreactivity
30 | QDQLVESGGGLDQAGGSLRLSCAASGNTFWPYAMGWYRQAPGKESEFVAAITFRGGSTYYADSVKGRFTISRDNAKNTVYLQMNSLKPEDTAVYYCNAERGVWSGYFGYDYWGQGTQVTVSS | low polyreactivity
31 | QDQLVESGGGLDQAGGSLRLSCAASGRIFKLYAMGWYRQAPGKERELVAAISKSGGNTYADSVKGRFTISRDNAKNTVYLQMNSLKPEETAVYYCAATVQSTSDPFDYWGQGTQVTVSS | low polyreactivity
32 | QDQLVESGGGLFKAGGSLRLSCAASGFIFSHYAMGWYRQAPGKERELVADISRSGTSTYYADSVTGRFTISRDNAKNTVYLQMNSLKPEDTAVYYFAKEYFFRGFNYRYDYWGQVTQVTVSS | high polyreactivity
33 | QDQLVESGGGLVHAGGSLRISCAASGRILYAYPMGWYRQAPGKERELVAAINWSGGSTYYADSVKGRFTISRDNAKNTVYLQMNSLKPEDTAVYYCNRVLDPTNKYYYWGQGTQVTVSS | high polyreactivity
34 | QDQLVESGGGLVPAVGSLRLTCAASGYTFWDYTMGLYRQAPGKERELGAAMSSSGSSTYYADSVKGRFTISRDNAKNTVYLQMNSLKPEDNAVYYCAAYSRRQWKYDYWGQGTHVTVSS | high polyreactivity
35 | QDQLVESGGGLVQAGASLRLICAASGFIFPSYAMGWYRKAPGKERELVAAISWTGGTYYADSVKGRFTISRDNAKNTVYLQMNSLKPEDTAVYYGAVRYKRKGSGYRTNAYDYWGQGTQVSVSS | high polyreactivity
36 | QDQLVESGGGLVQAGASLRLSCADSGFTFTTNAMGWYRHAPGKERELVAAISFSGGTTYYADSVKGRFTISRDNAKNTVYLQMNRLKPEDTAVYYCAAQPGQAWWSTDHDDYWGQGTQVTVSS | low polyreactivity
37 | QDQLVESGGGLVQAGCSLRLTCAASGSTFTSNAMGWYRQAPGKERYLVASISGSVGRTYYADSVKGRFTISRDNAKNTVYLQMNSLKPEDTAVYYCNDESRNLYSTQFDYWGQGTQVTVSS | low polyreactivity
38 | QDQLVESGGGLVQAGGRLRLSCAASGYIFAYNAMGRDRQAPGKERELVAAISYSGGRTYYAYSVKGRFTISRYIAKNTVYLQMKSLKPEVTAVYYCAAPFRVGAGPATYDYWGQGTQVTVSS | high polyreactivity
39 | QDQLVESGGGLVQAGGSHRLSCAASGLTLTDNALGWYRQAPGKERELVAAISQSGGRTSYADSVKGRFTISRDNAKNTVYLQMNSLKPEDTAVYYCNTRRGSVAKYGYWGQGTQVTVSS | high polyreactivity
40 | QDQLVESGGGLVQAGGSLGLRCAATGSTFTYYTMGWYRQAAGKERELVAAISRTTGSTYYADSVKGRFTISRDNAKNTVYLQMNSLKPEDTAVYYCAAQSYKILLYFIGTAGDGYWGQGTQVTVSS | low polyreactivity
41 | QDQLVESGGGLVQAGGSLLLSCAASGSTFYDYVMGWYRQAPGKERELVADISSGGGTNYADSLKGRFTISRDNAKNTVYLQMNSLKPEDTAVYYCAAYRYFFWYEFVSWGQGTQVTVSS | high polyreactivity
42 | QDQLVESGGGLVQAGGSLPLSCAASANIFPLYAMGWYRQAPGKERELVAAITWSTTSTYYADSVKGRFTISRDNAKNTVYLQMNSLKPEDTAVYYCKAKTDESYYYSDYDYWVQGTQVTVSS | low polyreactivity
43 | QDQLVESGGGLVQAGGSLRISCAASGGTFKSYAMGWYREAPGKERELVATITRDGRTNYADSVKGRFTISRDNAKNTVYLQMNSLKPEDTAVYYCNADYWSVWIALEFTVDYWGQGTQVTVSS | low polyreactivity
